Measurements taken from patent US20190142971A1, “FORMULATION AND DELIVERY OF MODIFIED NUCLEOSIDE, NUCLEOTIDE, AND NUCLEIC ACID COMPOSITIONS” (ModernaTX, Inc., priority 2013, published 2019).

Legend:
[1] = system: peripheral blood mononuclear cells (PBMC); test: Example 56: percent modification, PBMC G-CSF ELISA (Table 85); assay type: cell-based, human; conditions: 22 hours after transfection
Method: (§1) 480 ng of G-CSF mRNA modified with 5-methylcytosine (5mC) and pseudouridine (pseudoU) or unmodified G-CSF mRNA was transfected with 0.4 uL of Lipofectamine 2000 into peripheral blood mononuclear cells (PBMC) from three normal blood donors (D1, D2, and D3). […] The supernatant was harvested and run by ELISA 22 hours after transfection to determine the protein expression. The expression of IFN-alpha and TNF-alpha may be a secondary effect from the transfection of the G-CSF mRNA.

[2] = system: peripheral blood mononuclear cells (PBMC); test: Example 46A: percent modification, PBMC G-CSF ELISA (Table 73); assay type: cell-based, human
Method: as §1, with “960” for “480”, “0.8” for “0.4”, “D2,” for “D2, and”

[3] = system: Balb-C mice; test: Example 117: repeat dose luciferase KC2 LNP IM, IV, live and tissue imaging (Tables 192-200); assay type: in vivo; conditions: luciferase mRNA in PBS, IM 2.50 mg/kg
Method: “TM-2” means the groups were administered with 2 doses, administered 24 hours apart, “IV” means intravenous administration, “TV-1” means the groups were administered a single dose tail vein injection and “TV-2” means the groups were administered with 2 doses, administered 7 days apart. 2 groups of untreated Balb-C mice (n=3) were also evaluated. Groups 1, 3 and 7 were injected in the right leg and administration was repeated but into the left leg with 24 hours between injections. Groups 2, 4, and 9 were administered the mRNA in the right leg followed by repeat administration in the right leg with 24 hours between injections for Group 2 and 7 days between injections for Groups 4 and 9.
The final lipid molar ratio ranges of DLin-KC2-DMA, DSPC, cholesterol and PEG-DMG for the KC2 LNP are outlined in Table 194. The weight ratio of total lipid to mRNA was 20:1, the mean size was 95 nm (PDI: 0.11), the zeta at pH 7.4 was −1.0 mV and the encapsulation (RiboGreen) was essentially 100%.
Live imaging mice were imaged at 8 hours post-administration of each dose of luciferase modified mRNA and tissue imaging mice imaged 8 post-administration of the final dose of luciferase modified mRNA. Twenty minutes prior to imaging, the mice were injected intraperitoneally with a D-luciferin solution at 150 mg/kg. Animals were then anesthetized and images were acquired with an IVIS Lumina II imaging system (Perkin Elmer). For the tissue imaging mice (Groups 6-9), the mice were dissected twenty minutes after the D-luciferin injection and organs and tissue were subsequently imaged (muscle around injection site, liver and spleen for Groups 6 and 7 and were subsequently imaged the liver and spleen for Groups 8 and 9). Bioluminescence was measured as total flux (photons/second) of the mid-section and the entire mouse (IV administration), the injection site (IM administration), or the entire organ (tissue imaging).

[4] = system: C57BL/6; test: Example 116: mouse EPO mRNA in mannitol multi-dose, serum EPO (Table 186); assay type: in vivo, mice; conditions: mouse EPO mRNA in 5% isotonic Mannitol, IM 2.5 mg/kg per dose
Method: Serum was collected from the mice at 24 hours post the second, fourth, sixth and eighth doses.

[5] = system: C57BL/6; test: Example 115: human EPO mRNA electroporation multi-dose, serum EPO (Table 185); assay type: in vivo, mice; conditions: human EPO mRNA in PBS, IM 0.2 mg/kg per dose with EP
Method: (§2) Serum was collected from the mice at 24 hours post the first, second, third and fourth doses.

[6] = system: C57BL/6; test: Example 114: mouse EPO mRNA electroporation multi-dose, serum EPO (Tables 183, 184); assay type: in vivo, mice; conditions: mouse EPO mRNA in PBS, IM 0.2 mg/kg per dose with EP
Method: as §2

[7] = system: peripheral blood mononuclear cells (PBMC); test: Example 56: PBMC IFN-alpha and TNF-alpha ELISA and protein/cytokine ratio (Tables 86, 87); assay type: cell-based, human
Method: as §1
As mentioned above, using PBMC as an in vitro assay system it is possible to establish a correlation between translation (in this case G-CSF protein production) and cytokine production (in this case exemplified by IFN-alpha protein production). Better protein production is correlated with lower induction of innate immune activation pathway, and the percentage modification of a chemistry can be judged favorably based on this ratio (Table 87).

[8] = system: mice; test: Example 40: multi-site IM/SC G-CSF mRNA in mice, neutrophil count (Table 65); assay type: in vivo; conditions: intramuscular, day 3
Method: Injection of four doses or 2×50 ug (two sites) daily for three days (24 hrs interval) was performed. The fourth dose was administered 6 hrs before blood collection and CBC analysis. […] The mice were bled at 72 hours after the first mRNA injection (6 hours after the last mRNA dose) to determine the effect of mRNA-encoded human G-CSF on the neutrophil count. The dosing regimen is shown in Table 65 as are the resulting neutrophil counts (thousands/uL). In Table 65, an asterisks (*) indicate statistical significance at p<0.05.

[9] = system: HEK293 cells; test: Example 46B: percent modification, HEK293 G-CSF ELISA (Table 75); assay type: cell-based, Human
[10] = serum 24 hours post fourth dose
[11] = serum 24 hours post second dose

With “Luciferase: luciferase mRNA, SEQ ID NO: 14, Cap1, fully modified with 5-methylcytosine and pseudouridine” the “G-CSF Expression” value ([1]; PBMC donor D1, 480 ng mRNA) was 90.2 pg/mL, the “G-CSF Expression” value ([1]; PBMC donor D2, 480 ng mRNA) was 0.0 pg/mL and the “G-CSF Expression” value ([1]; PBMC donor D3, 480 ng mRNA) was 22.1 pg/mL. For the same molecule, the “G-CSF Expression” value ([2]; PBMC donor D1, 960 ng mRNA) was 14.5 pg/mL, the “G-CSF Expression” value ([2]; PBMC donor D2, 960 ng mRNA) was 3.1 pg/mL and the “G-CSF Expression” value ([2]; PBMC donor D3, 960 ng mRNA) was 10.0 pg/mL. The “Expression (Flux (p/s))” value ([3]; Dose 1, Dosed Right limb) was 6.71E+06 p/s, the “Expression (Flux (p/s))” value ([3]; Dose 1, Undosed Left limb) was 2.28E+05 p/s and the “Expression (Flux (p/s))” value ([3]; Dose 2, Dosed Left limb) was 1.16E+07 p/s. The “Expression (Flux (p/s))” value ([3]; Dose 2, Undosed Right limb) was 2.44E+07 p/s.

B1: EPO: modified mRNA encoding human erythropoietin, SEQ ID NO: 7, Cap1, fully modified with 5-methylcytosine and pseudouridine; LNP NPA-060-1 in Examples 17-22 (nucleic acid)
chain: GGGAAAUAAGAGAGAAAAGAAGAGUAAGAAGAAAUAUAAGAGCCACCAUGGGAGUGCACGAGUGUCCCGCGUGGUUGUGGUUGCUGCUGUCGCUCUUGAGCCUCCCACUGGGACUGCCUGUGCUGGGGGCACCACCCAGAUUGAUCUGCGACUCACGGGUACUUGAGAGGUACCUUCUUGAAGCCAAAGAAGCCGAAAACAUCACAACCGGAUGCGCCGAGCACUGCUCCCUCAAUGAGAACAUUACUGUACCGGAUACAAAGGUCAAUUUCUAUGCAUGGAAGAGAAUGGAAGUAGGACAGCAGGCCGUCGAAGUGUGGCAGGGGCUCGCGCUUUUGUCGGAGGCGGUGUUGCGGGGUCAGGCCCUCCUCGUCAACUCAUCACAGCCGUGGGAGCCCCUCCAACUUCAUGUCGAUAAAGCGGUGUCGGGGCUCCGCAGCUUGACGACGUUGCUUCGGGCUCUGGGCGCACAAAAGGAGGCUAUUUCGCCGCCUGACGCGGCCUCCGCGGCACCCCUCCGAACGAUCACCGCGGACACGUUUAGGAAGCUUUUUAGAGUGUACAGCAAUUUCCUCCGCGGAAAGCUGAAAUUGUAUACUGGUGAAGCGUGUAGGACAGGGGAUCGCUGAUAAGCUGCCUUCUGCGGGGCUUGCCUUCUGGCCAUGCCCUUCUUCUCUCCCUUGCACCUGUACCUCUUGGUCUUUGAAUAAAGCCUGAGUAGGAAG
modifications: Cap1, 5-methylcytosine, pseudouridine
With B1 the “Eighth Dose EPO” value ([4]; serum 24 hours post eighth dose) was 239.3 pg/mL, the “Fourth Dose EPO” value [4, 10] was 483.4 pg/mL and the “Second Dose EPO” value [4, 11] was 334.7 pg/mL. The “Sixth Dose EPO” value ([4]; serum 24 hours post sixth dose) was 328.9 pg/mL, the “First Dose EPO” value ([5]; serum 24 hours post first dose) was 9.5 pg/mL and the “Fourth Dose EPO” value [5, 10] was 139.9 pg/mL. The “Second Dose EPO” value [5, 11] was 27.9 pg/mL, the “Third Dose EPO” value ([5]; serum 24 hours post third dose) was 284.5 pg/mL and the “First Dose EPO” value ([6]; serum 24 hours post first dose) was 151.9 pg/mL. The “Fourth Dose EPO” value [6, 10] was 258.1 pg/mL, the “Second Dose EPO” value [6, 11] was 357.8 pg/mL and the “Third Dose EPO” value ([6]; serum 24 hours post third dose) was 898.5 pg/mL.

B2: G-CSF: modified mRNA encoding human G-CSF, SEQ ID NO: 4, Cap1, fully modified with 5-methylcytosine and pseudouridine; LNP-formulated in Examples 16-22 (nucleic acid)
chain: GGGAAAUAAGAGAGAAAAGAAGAGUAAGAAGAAAUAUAAGAGCCACCAUGGCCGGUCCCGCGACCCAAAGCCCCAUGAAACUUAUGGCCCUGCAGUUGCUGCUUUGGCACUCGGCCCUCUGGACAGUCCAAGAAGCGACUCCUCUCGGACCUGCCUCAUCGUUGCCGCAGUCAUUCCUUUUGAAGUGUCUGGAGCAGGUGCGAAAGAUUCAGGGCGAUGGAGCCGCACUCCAAGAGAAGCUCUGCGCGACAUACAAACUUUGCCAUCCCGAGGAGCUCGUACUGCUCGGGCACAGCUUGGGGAUUCCCUGGGCUCCUCUCUCGUCCUGUCCGUCGCAGGCUUUGCAGUUGGCAGGGUGCCUUUCCCAGCUCCACUCCGGUUUGUUCUUGUAUCAGGGACUGCUGCAAGCCCUUGAGGGAAUCUCGCCAGAAUUGGGCCCGACGCUGGACACGUUGCAGCUCGACGUGGCGGAUUUCGCAACAACCAUCUGGCAGCAGAUGGAGGAACUGGGGAUGGCACCCGCGCUGCAGCCCACGCAGGGGGCAAUGCCGGCCUUUGCGUCCGCGUUUCAGCGCAGGGCGGGUGGAGUCCUCGUAGCGAGCCACCUUCAAUCAUUUUUGGAAGUCUCGUACCGGGUGCUGAGACAUCUUGCGCAGCCGUGAAGCGCUGCCUUCUGCGGGGCUUGCCUUCUGGCCAUGCCCUUCUUCUCUCCCUUGCACCUGUACCUCUUGGUCUUUGAAUAAAGCCUGAGUAGGAAG
modifications: Cap1, 5-methylcytosine, pseudouridine
With B2 the “protein/cytokine ratio vs natural G-CSF mRNA” value ([7]; IFN-alpha) was 100 fold, the “protein/cytokine ratio vs natural G-CSF mRNA” value ([7]; TNF-alpha) was 27 fold and the “increase in neutrophil count above control” value [8] was “four fold increase”. For the same molecule, the “half-life of mRNA” value [9] was 8 to 10 h.
